Here are results for one molecule from US7446182 (University of Texas, dated 2008).

Test [1] deals with T1, Bacillus anthracis protective antigen (PA), 83 kDa polypeptide (Bacillus anthracis, UniProt P13423 30-764). Kind of test: SPR.
The target in test [2] is T1, Bacillus anthracis protective antigen …. Kind of test: SPR, PA immobilized on CM5 chip. (Surface plasmon resonance follows binding to a sensor surface in real time, without labels.)

T1 sequence (P13423 30-764 limits assumed): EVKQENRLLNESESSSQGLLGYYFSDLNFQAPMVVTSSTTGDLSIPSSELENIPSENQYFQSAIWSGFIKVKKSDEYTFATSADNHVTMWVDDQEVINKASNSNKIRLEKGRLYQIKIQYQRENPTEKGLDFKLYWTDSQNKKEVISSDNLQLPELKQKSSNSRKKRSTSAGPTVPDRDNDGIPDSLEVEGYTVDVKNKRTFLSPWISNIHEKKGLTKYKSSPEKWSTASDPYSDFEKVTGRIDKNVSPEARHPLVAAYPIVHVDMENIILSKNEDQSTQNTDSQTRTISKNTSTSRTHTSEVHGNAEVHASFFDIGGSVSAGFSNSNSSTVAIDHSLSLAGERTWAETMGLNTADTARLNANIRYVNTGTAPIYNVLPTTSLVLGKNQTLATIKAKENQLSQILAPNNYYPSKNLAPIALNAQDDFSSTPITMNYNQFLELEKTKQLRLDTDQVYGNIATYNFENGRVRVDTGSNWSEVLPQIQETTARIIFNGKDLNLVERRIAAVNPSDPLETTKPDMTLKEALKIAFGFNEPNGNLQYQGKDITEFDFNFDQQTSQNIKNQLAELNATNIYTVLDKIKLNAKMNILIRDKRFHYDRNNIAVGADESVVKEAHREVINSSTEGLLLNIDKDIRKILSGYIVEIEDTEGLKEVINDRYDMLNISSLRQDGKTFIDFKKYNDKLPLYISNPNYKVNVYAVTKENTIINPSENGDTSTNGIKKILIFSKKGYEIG

B1: 1H scFv (scFv)
scFv: DIQMTQTTSSLSASLGDRVTISCRASQDIRNYLNWYQQKPDGTVKLLIYYTSRLLPGVPSRFSGSGSGTDYSLTISNQEQEDIGTYFCQQGNTLPWTGFFFTKLEIRRGGGGSGGGGSGGGGSGGGGSEVQLQQSGPELVKPGASVKISCKIDSGYAFSSSWMNWVKQRFGQGLEWIGRIYPGDGDTNYNGKFKGKATLTADKSSSTAYMQLSSLTSVDSAVYFCARSGLLRYAMDYWGQGTSVTVSS
In the case of B1, in test [1], the Kd stood at 0.25 nM and the “fold lower equilibrium dissociation constant than 14B7” value amounted to 48 fold. In test [2], this molecule returned a Kd of 0.24 nM, a koff of 0.00017 s⁻¹ and a kon of 720000 M⁻¹ s⁻¹.

Usually Kd stands for the free concentration of one partner at which half of the binding sites on the other are occupied at equilibrium, for simple one-to-one binding. A low value points to tighter binding. Usually koff stands for the rate constant with which the complex falls apart. A high value points to a short-lived complex. Broadly, the kon is a measure of how fast the partners come together. A low value points to slow association.
